Results on one molecule are retold here after PMC6053597, “Coupling of polymerase and carrier lipid phosphatase prevents product inhibition in peptidoglycan synthesis” (The Cell Surface, 2018).

The target of assay [1] is T1, PBP1B (Penicillin-binding protein 1B), untagged (E. coli, UniProt P02919 58-804).
T1 sequence: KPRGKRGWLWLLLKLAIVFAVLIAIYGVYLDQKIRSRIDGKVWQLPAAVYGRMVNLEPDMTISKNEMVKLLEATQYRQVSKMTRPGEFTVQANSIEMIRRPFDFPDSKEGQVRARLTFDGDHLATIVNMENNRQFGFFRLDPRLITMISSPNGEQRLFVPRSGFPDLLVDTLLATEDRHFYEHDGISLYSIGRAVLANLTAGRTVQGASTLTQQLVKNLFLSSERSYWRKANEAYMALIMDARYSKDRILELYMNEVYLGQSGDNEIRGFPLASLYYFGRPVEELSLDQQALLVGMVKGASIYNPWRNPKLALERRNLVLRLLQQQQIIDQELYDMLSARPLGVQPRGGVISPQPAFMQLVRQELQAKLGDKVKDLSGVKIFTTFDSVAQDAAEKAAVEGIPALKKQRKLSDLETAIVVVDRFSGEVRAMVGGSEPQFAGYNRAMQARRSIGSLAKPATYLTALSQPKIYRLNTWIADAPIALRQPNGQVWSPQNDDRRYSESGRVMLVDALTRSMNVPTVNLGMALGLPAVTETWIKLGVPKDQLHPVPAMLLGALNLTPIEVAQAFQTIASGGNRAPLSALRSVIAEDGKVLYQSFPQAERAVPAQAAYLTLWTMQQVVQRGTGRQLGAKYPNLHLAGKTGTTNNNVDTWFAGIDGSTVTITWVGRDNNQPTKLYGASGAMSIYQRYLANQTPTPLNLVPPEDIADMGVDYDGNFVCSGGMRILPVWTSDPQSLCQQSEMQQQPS
The experiment in a line: cell-based or functional assay.

The target of assay [2] is T1, PBP1B (Penicillin-binding protein 1B), …. As to the kind of experiment: SPR; PBP1A or PBP1B covalently immobilised via their TPase active site on a sensor chip with bound ampicillin; PgpB-ht injected at 0.125-2 μM in 10 mM Tris/maleate pH 7.5, 150 mM NaCl, 5 mM imidazole, 5 mM β-mercaptoethanol, 0.05% DDM; 25 °C, 75 μL/min; equilibrium response fitted to a 1:1 model; apparent KD. The settings on record: both partners purified. (SPR reads the build-up and loss of mass on a sensor chip optically.)

B1: PgpB-ht (C-terminal His6-tagged version of PgpB) (enzyme, E. coli)
chain: MRSIARRTAVGAALLLVMPVAVWISGWRWQPGEQSWLLKAAFWVTETVTQPWGVITHLILFGWFLWCLRFRIKAAFVLFAILAAAILVGQGVKSWIKDKVQEPRPFVIWLEKTHHIPVDEFYTLKRAERGNLVKEQLAEEKNIPQYLRSHWQKETGFAFPSGHTMFAASWALLAVGLLWPRRRTLTIAILLVWATGVMGSRLLLGMHWPRDLVVATLISWALVAVATWLAQRICGPLTPPAEENREIAQREQES
notes: PgpB, C55-PP pyrophosphatase (PAP2 family) of E. coli; amplified by PCR from genomic DNA of E. coli BW25113 and cloned into pET28a(+) (pET28a-pgpB); Purified according to Touzé et al., 2008a with modifications; also called oligohistidine tagged PgpB; source: E. coli C43(DE3), membrane fraction solubilised in DDM, purified (Ni-NTA); not shown: His6, C-terminal, kept
On to B1, for which the “lipid II consumption by PBP1B in proteoliposomes of artificial lipids with PgpB at a 1:1 molar ratio, with LpoB(sol), TLC (PBP1B alone: less than 20%)” value in assay [1] turned out to be 63%. Besides, the Kd in assay [2] was determined as 1050 nM.
